Here are results for one substance from article PMC2749490.

This series concerns CC(C)C[C@H](NC(=O)[C@H](CO)NC(=O)[C@H](C)NC(=O)[C@H](CCCNC(=N)N)NC(=O)[C@H](CCCNC(=N)N)NC(=O)[C@@H](N)CC(C)C)C(=O)NCC(=O)O. It is filed as biochemical. Particulars: other: from the noncompetitive inhibition model fit; pH 7.4.

For PKA (Homo sapiens), the Km amounted to 12 µM.
